In EP1772519A1:
Where “and” joins values, the source holds several entries; their conditions need not be identical. Identical values can stand only once.

Molecular target: recombinant RB47 (r-RB47), containing only the four RNA recognition motif domains, histidine tag fus (Chlamydomonas reinhardtii)
Experiment: cell-based or functional assay

For “recombinant RB60 (r-RB60), histidine tag fusion expressed in E. coli (enzyme)”, the RNA binding activity of r-RB47 (gel mobility-shift assay) after incubation with GSSG and r-RB60 was 5 fold and 6 fold.
